Publication PMC3961392

Columns and labels:
A3G NPM ins194_195NPM = A3G NPM ins194_195NPM (UniProt Q9HC16); experiment: fluorescence anisotropy; settings: RT buffer: 50 mM Tris pH 7.4, 40 mM KCl, 10 mM MgCl2, 1 mM DTT; 10 nM F-labeled DNA; 21 C
A3G = A3G (Homo sapiens?) (UniProt Q9HC16); experiment: fluorescence anisotropy; settings: RT buffer: 50 mM Tris pH 7.4, 40 mM KCl, 10 mM MgCl2, 1 mM DTT; 10 nM F-labeled DNA; 21 C
Chain of A3G (Homo sapiens?) (Q9HC16 whole entry): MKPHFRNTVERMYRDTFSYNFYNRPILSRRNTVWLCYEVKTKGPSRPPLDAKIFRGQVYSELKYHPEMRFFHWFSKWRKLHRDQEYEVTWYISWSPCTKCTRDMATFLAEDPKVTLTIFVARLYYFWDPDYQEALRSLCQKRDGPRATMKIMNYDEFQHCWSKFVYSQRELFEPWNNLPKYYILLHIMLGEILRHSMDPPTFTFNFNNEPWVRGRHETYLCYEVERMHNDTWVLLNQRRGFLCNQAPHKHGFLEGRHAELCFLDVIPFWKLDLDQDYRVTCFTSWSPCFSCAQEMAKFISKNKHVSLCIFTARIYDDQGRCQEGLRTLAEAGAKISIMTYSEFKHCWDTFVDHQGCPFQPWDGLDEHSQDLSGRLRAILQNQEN

Chain of A3G NPM ins194_195NPM (Q9HC16 whole entry): as above

GAATATATGTTGAGACCCAAAGTAATGAGAGATTGATTAGATGAGTGTAATGTGATATATGTGTATGAAAGATATAAGACCCAAAGAGTAAAGTTGTTAATGTGTGTAGATATGTTAA [A3G - 63 (118 nt, CCC)]
Kd (A3G NPM ins194_195NPM): 56 nM
Kd (A3G): 130 nM
